Biological target: T1, crotonyl-S-SfaO (N-terminal 6x His-tagged free acyl carrier protein SfaO carrying a crotonyl thioester)
T1 chain: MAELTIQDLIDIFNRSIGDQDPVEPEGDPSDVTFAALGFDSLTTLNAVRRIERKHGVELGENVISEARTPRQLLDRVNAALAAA

B1: N-terminal 6x His-tagged SfaR (crotonyl-CoA reductase) (protein)
chain: VNEILSAVLSAEATAADFAALPLPESYRAITVHKDETEMFTGVGPADKDPRKSLHLDEVPVPELGPGEALVAVMASSVNYNSVWSSIFEPLPTFAFLERYGRRGELAKRHDLPYHVIGSDLAGVVLRTGPGVQAWKPGDEVVAHCLSVELESSDGHDDTMMDPEQRIWGFETNFGGLAELALVKSNQLMPKPRHLTWEEAAAPGLVNSTAYRQLVSRNGAQMKQGDNVLIWGASGGLGSYATQLALAGGANPVCVVSTPQKAAICRSMGAEAVIDRDAEDYRFWRDGNTQDPREWKRFGKRIRELTGGEDVDIVFEHPGRETFGASVFVARKGGTIVTCASTSGYEHQYDNRYLWMSLKRIIGSHFANYREAWEANRLVAKGRIHPTLSKVYPLEETGQAAFDVYGNVHHGKVGVLGLAPTEGLGVRDEEMRARHVGAINRFRPSAEPQTEPV
For B1, the “activity of SfaR (reduction / reductive carboxylation) with crotonyl-S-SfaO as the substrate” value was “failed to detect any activity of SfaR”.

Reference: patent US20110229941
